Assay [1] deals with human β-klotho (human, UniProt Q86Z14 1-1044). Description: cell-based or functional assay.
Assay [2] has as its target β-klotho of differentiated 3T3-L1 adipocytes (mouse) (UniProt Q99N32). Briefly: cell-based or functional assay.
The target of assay [3] is T1, murine serum albumin (mouse, UniProt P07724 25-608).
T1 construct: also called MuSA; mouse serum albumin
Description: SPR (Biacore), albumin immobilized on CM5 chip. Background: SPR reads the build-up and loss of mass on a sensor chip optically.
Description: (§3) In addition, binding to albumin was carried out under various pH conditions ranging from pH 5.5 to pH 7.4.

The target in assay [4] is T2, rhesus serum albumin (rhesus, UniProt Q28522 17-600).
T2 construct: also called RhSA
T2 sequence (Q28522 17-600 limits assumed): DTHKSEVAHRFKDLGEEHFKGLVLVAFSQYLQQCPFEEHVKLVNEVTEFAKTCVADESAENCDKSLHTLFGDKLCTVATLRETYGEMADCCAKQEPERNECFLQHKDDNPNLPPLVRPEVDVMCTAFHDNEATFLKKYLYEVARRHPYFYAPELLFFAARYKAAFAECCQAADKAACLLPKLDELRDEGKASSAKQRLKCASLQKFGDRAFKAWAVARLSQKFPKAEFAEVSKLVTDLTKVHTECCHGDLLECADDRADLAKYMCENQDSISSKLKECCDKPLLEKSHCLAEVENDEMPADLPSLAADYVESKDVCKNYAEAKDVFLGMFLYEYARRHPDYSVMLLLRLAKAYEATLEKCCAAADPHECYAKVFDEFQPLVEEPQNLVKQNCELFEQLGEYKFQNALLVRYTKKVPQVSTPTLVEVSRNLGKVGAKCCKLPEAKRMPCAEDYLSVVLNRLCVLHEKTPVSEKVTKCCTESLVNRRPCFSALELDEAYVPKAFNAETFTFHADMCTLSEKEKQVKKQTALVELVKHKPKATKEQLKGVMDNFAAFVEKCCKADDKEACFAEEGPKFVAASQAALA
Briefly: SPR (Biacore), albumin immobilized on CM5 chip.
Description: as §3

The target of assay [5] is T3, human serum albumin (human, UniProt P02768 25-609).
T3 construct: also called HSA; HuSA
Briefly: SPR (Biacore), albumin immobilized on CM5 chip.

The target in assay [6] is T3, human serum albumin. Description: SPR (ProteOn XPR36), HSA immobilized on GLC chip, 25 C. The protocol:
(§1) Surface Plasmon Resonance (SPR) is a direct binding technique by which molecular interactions can be observed in real time. For these experiments, SPR binding studies were performed using a ProteOn XPR36 instrument (BioRad Laboratories). The running buffer, phosphate buffered saline 0.05% Tween 20 pH 7.4, was purchased from Teknova (cat #P1192) and all experiments were run at 25° C. Human serum albumin was directly immobilized on a BioRad GLC chip via amine coupling as per manufacturer's guidelines using amine coupling reagents purchased from BioRad Laboratories. Human serum albumin was purchased from Novozymes (Recombumin™). About 5000 resonance units (RU) of human serum albumin were immobilized onto 4 separate lanes of the GLC chip surface. […] The dissociation was monitored for 600 seconds. The surface was regenerated with 100 mM HCl. The resultant data were fitted to a Langumuir 1:1 binding model using the ProteOn Manager Software. The experiment was repeated with a different concentration range. In this second experiment, 5 concentrations ranging from 500 nM to 32 nM were injected over the surfaces, and the data analyzed as above. The KD is the disassociation constant. Smaller numbers indicate tighter binding to serum albumin.

For assay [7], the target named is Amylin receptor (chimpanzee; human, UniProt O60894 27-148). Description: cell-based or functional assay.
Sequence of Amylin receptor (O60894 27-148): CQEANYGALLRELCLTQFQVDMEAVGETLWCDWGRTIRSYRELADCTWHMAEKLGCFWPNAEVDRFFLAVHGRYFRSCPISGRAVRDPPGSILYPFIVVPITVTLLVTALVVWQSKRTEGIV
For assay [8], the target named is T3, human serum albumin. Briefly: Affinity for hSA by SPR (same value as in Table 21). The protocol: as §1
In assay [9] the target is T4, human NPY Y2 receptor (human, UniProt P49146 1-381).
T4 sequence (looked up): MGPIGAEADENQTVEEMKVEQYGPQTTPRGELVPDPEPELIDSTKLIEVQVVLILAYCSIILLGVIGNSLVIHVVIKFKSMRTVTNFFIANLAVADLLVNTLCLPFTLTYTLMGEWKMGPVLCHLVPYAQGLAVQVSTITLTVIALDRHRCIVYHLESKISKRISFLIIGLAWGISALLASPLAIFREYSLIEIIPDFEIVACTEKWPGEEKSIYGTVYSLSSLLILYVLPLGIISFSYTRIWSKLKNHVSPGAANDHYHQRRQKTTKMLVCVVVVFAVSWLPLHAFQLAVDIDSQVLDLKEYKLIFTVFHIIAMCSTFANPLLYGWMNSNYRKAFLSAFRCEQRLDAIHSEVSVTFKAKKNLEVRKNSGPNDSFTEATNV
Description: cell-based or functional assay.

Assay [10] concerns the target human NPY Y4 receptor (human, UniProt P50391 1-375). Description: cell-based or functional assay.
Assay [11] deals with T5, cynomolgous monkey serum albumin (cynomolgous monkey, UniProt A2V9Z4 25-608).
T5 construct: also called CySA
T5 sequence (A2V9Z4 25-608 limits assumed): as the sequence (Q28522 17-600 limits assumed) above
Briefly: SPR (Biacore T100), CySA immobilized, 37 C, 60 µl/min. The protocol:
(§2) Serum albumins were dissolved in PBS buffer (10 mM sodium phosphate, 130 mM sodium chloride, pH 7.1) to a concentration of 10 mg/ml, and subsequently diluted to 8-10 μg/ml in 10 mM sodium acetate pH 5.0 for immobilization. Serum albumins were immobilized on a Series S CM5 sensor chip using standard ethyl(dimethylaminopropyl) carbodiimide (EDC)/N-hydroxysuccinimide (NHS) chemistry in HBS-EP+ running buffer at 25° C., following general manufacturer guidelines. Flow cell 1 was activated with EDC/NHS and blocked with ethanolamine. […] Kinetic experiments were performed in PBS buffer containing 0.05% tween-20 (running buffer) at either 25° C. or 37° C. […] These samples were injected across flow cells 1-4 for 300 s, with a 420 s dissociation time, at flow rates of 30 μl/min or 60 μl/min to check for mass transfer limitation. All surfaces were regenerated with 2 pulses of 10 mM glycine pH 2.0 at 30 μl/min for 30 s. Raw sensograms were “double-referenced” by subtracting flow cell 1 data from flow cell 2, 3 or 4 data, and then subtracting a separate buffer cycle from each sensogram. The double-referenced sensogram data was fitted to a 1:1 Langmuir model using Biacore T100 Evaluation software version 2.0.2 to determine the association rate constant (ka), the dissociation rate constant (kd), and the equilibrium dissociation constant (KD).

Assay [12] concerns the target T1, murine serum albumin. Description: SPR (Biacore T100), immobilized MuSA, analyte series 1000 to 62.5 nM, 37 C. On the procedure:
as §2

Assay [13] concerns the target T5, cynomolgous monkey serum albumin. Description: SPR (Biacore T100), CySA immobilized, 37 C, 30 µl/min. On the procedure: as §2
The target of assay [14] is T3, human serum albumin. Description: SPR (Biacore T100), HSA immobilized, 37 C, 60 µl/min. On the procedure: as §2
Assay [15] addresses T3, human serum albumin. Description: SPR (Biacore T100), HSA immobilized, 37 C, 30 µl/min. On the procedure: as §2

Consider eleven molecules from US20190203248A1 (Bristol-Myers Squibb, published 2019).

Positions of bridges follow the written chain, without caps; N, C: chain ends. No end group written: not given here.

T1 sequence (P07724 25-608 limits assumed): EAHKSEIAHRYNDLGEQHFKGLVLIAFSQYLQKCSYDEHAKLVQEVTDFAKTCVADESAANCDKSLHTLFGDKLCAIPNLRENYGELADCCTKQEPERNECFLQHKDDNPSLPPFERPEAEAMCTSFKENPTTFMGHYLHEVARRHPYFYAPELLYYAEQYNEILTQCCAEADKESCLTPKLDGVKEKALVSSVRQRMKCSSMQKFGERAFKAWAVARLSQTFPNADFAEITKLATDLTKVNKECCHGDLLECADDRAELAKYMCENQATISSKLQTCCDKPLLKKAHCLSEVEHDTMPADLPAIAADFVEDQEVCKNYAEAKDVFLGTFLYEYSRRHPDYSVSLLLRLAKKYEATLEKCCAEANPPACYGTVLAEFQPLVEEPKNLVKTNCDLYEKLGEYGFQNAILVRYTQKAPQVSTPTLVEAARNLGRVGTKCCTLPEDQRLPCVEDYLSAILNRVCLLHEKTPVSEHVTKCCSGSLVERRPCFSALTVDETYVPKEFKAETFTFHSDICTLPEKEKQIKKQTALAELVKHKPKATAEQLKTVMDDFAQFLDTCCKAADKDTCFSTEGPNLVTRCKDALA
Sequence of human NPY Y4 receptor (P50391 whole entry): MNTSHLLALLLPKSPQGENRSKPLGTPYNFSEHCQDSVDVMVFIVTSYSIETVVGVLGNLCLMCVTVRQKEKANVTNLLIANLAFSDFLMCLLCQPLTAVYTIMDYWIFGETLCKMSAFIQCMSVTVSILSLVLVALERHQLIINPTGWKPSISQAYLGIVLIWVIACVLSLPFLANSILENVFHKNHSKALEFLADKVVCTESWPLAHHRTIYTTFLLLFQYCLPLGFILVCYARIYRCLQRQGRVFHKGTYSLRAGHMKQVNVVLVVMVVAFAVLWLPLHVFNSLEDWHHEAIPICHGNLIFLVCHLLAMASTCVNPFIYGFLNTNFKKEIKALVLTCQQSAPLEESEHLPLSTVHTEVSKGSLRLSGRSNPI
Sequence of β-klotho of differentiated 3T3-L1 adipocytes (mouse) (Q99N32 whole entry): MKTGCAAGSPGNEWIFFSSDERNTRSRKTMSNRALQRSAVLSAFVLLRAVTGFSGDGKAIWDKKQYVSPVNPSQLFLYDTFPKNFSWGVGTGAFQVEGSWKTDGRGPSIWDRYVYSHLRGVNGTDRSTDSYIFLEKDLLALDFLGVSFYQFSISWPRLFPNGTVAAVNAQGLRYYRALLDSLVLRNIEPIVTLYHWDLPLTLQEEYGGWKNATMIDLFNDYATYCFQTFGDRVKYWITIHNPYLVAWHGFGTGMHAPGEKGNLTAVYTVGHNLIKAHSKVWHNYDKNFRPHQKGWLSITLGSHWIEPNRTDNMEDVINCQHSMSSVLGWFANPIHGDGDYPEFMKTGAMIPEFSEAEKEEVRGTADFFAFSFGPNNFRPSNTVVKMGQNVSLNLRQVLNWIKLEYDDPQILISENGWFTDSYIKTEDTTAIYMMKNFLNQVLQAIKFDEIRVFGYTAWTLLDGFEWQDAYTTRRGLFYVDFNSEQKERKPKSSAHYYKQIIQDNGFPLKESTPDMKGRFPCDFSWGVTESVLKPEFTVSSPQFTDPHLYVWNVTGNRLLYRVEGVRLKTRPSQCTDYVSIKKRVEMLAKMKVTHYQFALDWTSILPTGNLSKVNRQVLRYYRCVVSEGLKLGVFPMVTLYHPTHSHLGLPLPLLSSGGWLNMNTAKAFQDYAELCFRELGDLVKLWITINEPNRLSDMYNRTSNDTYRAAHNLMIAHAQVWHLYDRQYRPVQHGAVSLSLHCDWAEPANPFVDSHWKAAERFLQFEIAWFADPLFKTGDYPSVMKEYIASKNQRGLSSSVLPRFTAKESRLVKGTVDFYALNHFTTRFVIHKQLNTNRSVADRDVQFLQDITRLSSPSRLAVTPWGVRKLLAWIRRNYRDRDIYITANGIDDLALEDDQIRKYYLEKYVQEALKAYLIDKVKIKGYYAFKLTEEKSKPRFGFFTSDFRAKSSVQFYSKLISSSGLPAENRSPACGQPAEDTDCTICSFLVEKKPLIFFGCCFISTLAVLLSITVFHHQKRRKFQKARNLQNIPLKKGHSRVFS

In assay [1], “His-tagged FGF21 (from UniProt Q9NSA1 29-209) (ligand)” displayed an EC50 (nM), pERK 1/2 assay in HEK β-Klotho expressing stable cells of 7 nM and an Efficacy (%), pERK 1/2 assay in HEK β-Klotho expressing stable cells of 100%. In assay [2], this molecule had an EC50 (nM), pERK assay in 3T3-L1 adipocytes of 4 nM and a Fold Activation, pERK assay in 3T3-L1 adipocytes of 2.1 fold.

B1: SABA2.1 (designed binder)
chain: MGVSDVPRDLEVVAATPTSLLISWPKYDKTGHYYRITYGETGGNSPVQEFTVPTRQTTATISGLKPGVDYTITVYAVSKDDYYPHEHRPISINYRTEIDKPSQHHHHHH
notes: His6-tagged Adnectin core 2
On to B1, for which the binding result in assay [3] was “no binding”. Further, in [4], the Kd came out at 63.6 nM and the koff is 0.000442 s⁻¹. Moreover, in assay [5], the Kd worked out at 33.8 nM and the koff is 0.000171 s⁻¹.

B2: SABA1.1 (designed binder)
chain: MGVSDVPRDLEVVAATPTSLLISWHSYYEQNSYYRITYGETGGNSPVQEFTVPYSQTTATISGLKPGVDYTITVYAVYGSKYYYPISINYRTEIDKPSQHHHHHH
As for B2, the binding result in [3] is on record as “no binding”. In assay [4], this molecule came in with a Kd of 778 nM and a koff of 0.00545 s⁻¹. In assay [5], this molecule had a Kd of 47.2 nM and a dissociation rate constant (koff) of 0.000457 s⁻¹.

B3: SABA1-AMYv25 (designed binder)
chain: MGVSDVPRDLEVVAATPTSLLISWHSYYEQNSYYRITYGETGGNSPVQEFTVPYSQTTATISGLKPGVDYTITVYAVYGSKYYYPISINYRTEIEDEDEDEDEDGC
modifications: Maleimide-PEG20 spacer (X1) between the Cys after (ED)5G and AMYv5 (rat amylin); C-terminal amidation; disulfide bridge between the two Cys residues of amylin
notes: also called SABA-Amylin-CONH2 conjugate; SABA1.7-(ED)5G-Cys-PEG20-Amylin-CONH2
In [6], B3 yielded a Kd of 25.8 nM, a koff of 0.000241 s⁻¹ and a kon of 9340 M⁻¹ s⁻¹. Further, in [7], the “Cell based Potency (EC50, nM), cellular cAMP assay” value worked out at 12.2 nM and the “Efficacy (% of native peptide ligand maximal activity), cellular cAMP assay” value amounted to 119%. The same molecule yielded a Kd in assay [8] of 25.8 nM.

B4: SABA1-PYYv7 (designed binder)
chain: B3 chain
modifications: Maleimide-PEG20 spacer (X1) between the Cys after (ED)5G and PYYv17 (mouse PYY3-36); C-terminal amidation
notes: also called SABA-PYY3-36-CONH2 conjugate; SABA1.7-(ED)5G-Cys-PEG20-PYY-CONH2
With B4, in assay [6], the Kd is 22.5 nM, the koff came out at 0.000208 s⁻¹ and the kon worked out at 9290 M⁻¹ s⁻¹. Besides, the “Potency (EC50, nM), GTPγS binding functional assay” value in [9] came to 52 nM. In assay [8], this molecule came in with a dissociation constant Kd of 22.5 nM.

B5: SABA1-PPv7 (designed binder)
chain: B3 chain
modifications: Maleimide-PEG20 spacer (X1) between the Cys after (ED)5G and PPv9 (mouse PP); C-terminal amidation
notes: also called SABA-PP-CONH2 conjugate; SABA1-APPv7
In [6], B5 had a Kd of 18.8 nM, a koff of 0.000142 s⁻¹ and a kon of 7880 M⁻¹ s⁻¹. For the same molecule, the “Potency (EC50), GTPγS binding functional assay” value in assay [10] was over 1000 nM. Further, the equilibrium dissociation constant (Kd) in assay [8] was 18.8 nM.

B6: SABA3.1 (designed binder)
chain: MGVSDVPRDLEVVAATPTSLLISWSNDGPGLSYYRITYGETGGNSPVQEFTVPSSQTTATISGLKPGVDYTITVYAVSYYTKKAYSAGPISINYRTEIDKPSQHHHHHH
notes: His6-tagged Adnectin core 3
With B6, the binding result in [3] is “no binding”. In [4], this molecule yielded a Kd of 431 nM and a koff of 0.0337 s⁻¹. Moreover, in [5], binding was characterised by a dissociation constant (Kd) of 863 nM and the koff came to 0.0682 s⁻¹.

B7: SABA1-FGF21v3 (designed binder)
chain: MGVSDVPRDLEVVAATPTSLLISWHSYYEQNSYYRITYGETGGNSPVQEFTVPYSQTTATISGLKPGVDYTITVYAVYGSKYYYPISINYRTEIDKPSQHHHHHHGSGSGSGSGSGSGSPIPDSSPLLQFGGQVRQRYLYTDDAQQTEAHLEIREDGTVGGAADQSPESLLQLKALKPGVIQILGVKTSRFLCQRPDGALYGSLHFDPEACSFRELLLEDGYNVYQSEAHGLPLHLPGNKSPHRDPAPRGPARFLPLPGLPPALPEPPGILAPQPPDVGSSDPLSMVGPSQGRSPSYAS
notes: Fusion of SABA1 and FGF21; also called SABA1-FGF21 variant 3
Turning to B7, the Kd in assay [11] was determined as 3100 nM; in assay [13] it was 2200 nM; in assay [14], 180 nM; in assay [15], 170 nM. Further, the koff in assay [11] came out at 0.0136 s⁻¹; in [13], 0.0117 s⁻¹; in assay [14] it was 0.00107 s⁻¹; in assay [15], 0.00103 s⁻¹. In addition, the kon worked out at 4380 M⁻¹ s⁻¹ in [11], 5310 M⁻¹ s⁻¹ in assay [13], 5870 M⁻¹ s⁻¹ in assay [14] and 6160 M⁻¹ s⁻¹ in assay [15]. For the same molecule, in [12], the binding result was “no binding (tested: 1000 nM)”.
Take APLEPMYPGDYATPEQMAQYETQLRRYINTLTRPRY-NH2 [PP Control Peptide]: in assay [10], the “Potency (EC50, nM), GTPγS binding functional assay” value stood at 1.7 nM.

B8: SABA4.1 (designed binder)
chain: MGVSDVPRDLEMVAATPTSLLISWEDDSYYSRYYRITYGETGGNSPVQEFTVPSDLYTATISGLKPGVDYTITVYAVTYDVTDLIMHEPISINYRTEIDKPSQHHHHHH
notes: His6-tagged Adnectin core 4; has a scaffold mutation; the scaffold-perfect version is SABA5
B8: in [3], the binding result is recorded as “no binding”. For the same molecule, in assay [4], the equilibrium dissociation constant (Kd) was over 1000 nM and the koff stood at 0.00383 s⁻¹. Further, in assay [5], the affinity, expressed as Kd, was 412 nM and the koff was 0.000782 s⁻¹.
For KCNTATCATQRLANFLVRSSNNLGPVLPPTNVGSNTY-NH2 (disulfide 2-7) [Amylin Control Peptide], in assay [7], the “Efficacy (% of native peptide ligand maximal activity), cellular cAMP assay” value amounted to 100%.

One may read the Kd as the free concentration of one partner at which half of the binding sites on the other are occupied at equilibrium, for simple one-to-one binding. What is called koff is the rate constant with which the complex falls apart. Usually kon stands for a measure of how fast the partners come together.
